# Test results from PMC8451464.
# Biological target: papain (UniProt P00784)
# UniProt P00784, sequence (P00784 134-345): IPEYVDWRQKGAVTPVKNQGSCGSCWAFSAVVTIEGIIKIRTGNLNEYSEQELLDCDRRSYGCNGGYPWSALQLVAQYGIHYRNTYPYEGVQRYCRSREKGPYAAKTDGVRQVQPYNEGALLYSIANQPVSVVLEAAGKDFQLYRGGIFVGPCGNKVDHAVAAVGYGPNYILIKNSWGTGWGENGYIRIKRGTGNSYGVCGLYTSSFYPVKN
substance,measurement,value
His-SSPbP53 (natural protein),"degradation of fluorescein-labeled casein by papain (100 μg/mL) with His-SSPbP53 at 100 and 500 nM, 1 h at room temperature (% reduction of activity)",> 50
